Laboratory results as given in publication doi:10.1101/2022.11.10.515920 (bioRxiv, 2022).

Molecular target: the molecule itself
Assay: SEC

B1: glucose oxidase expressed in BY-2 lysate (enzyme)
chain: LPHYIRSNGIEASLLTDPKDVSGRTVDYIIAGGGLTGLTTAARLTENPNISVLVIESGSYESDRGPIIEDLNAYGDIFGSSVDHAYETVELATNNQTALIRSGNGLGGSTLVNGGTWTRPHKAQVDSWETVFGNEGWNWDNVAAYSLQAERARAPNAKQIAAGHYFNASCHGVNGTVHAGPRDTGDDYSPIVKALMSAVEDRGVPTKKDFGCGDPHGVSMFPNTLHEDQVRSDAAREWLLPNYQRPNLQVLTGQYVGKVLLSQNGTTPRAVGVEFGTHKGNTHNVYAKHEVLLAAGSAVSPTILEYSGIGMKSILEPLGIDTVVDLPVGLNLQDQTTATVRSRITSAGAGQGQAAWFATFNETFGDYSEKAHELLNTKLEQWAEEAVARGGFHNTTALLIQYENYRDWIVNHNVAYSELFLDTAGVASFDVWDLLPFTRGYVHILDKDPYLHHFAYDPQYFLNELDLLGQAAATQLARNISNSGAMQTYFAGETIPGDNLAYDADLSAWTEYIPYHFRPNYHGVGTCSMMPKEMGGVVDNAARVYGVQGLRVIDGSIPPTQMSSHVMTVFYAMALKISDAILEDYASMQ
stoichiometry N: 2

B2: glucose oxidase, commercial standard purified from Aspergillus niger (enzyme)
chain: LPHYIRSNGIEASLLTDPKDVSGRTVDYIIAGGGLTGLTTAARLTENPNISVLVIESGSYESDRGPIIEDLNAYGDIFGSSVDHAYETVELATNNQTALIRSGNGLGGSTLVNGGTWTRPHKAQVDSWETVFGNEGWNWDNVAAYSLQAERARAPNAKQIAAGHYFNASCHGVNGTVHAGPRDTGDDYSPIVKALMSAVEDRGVPTKKDFGCGDPHGVSMFPNTLHEDQVRSDAAREWLLPNYQRPNLQVLTGQYVGKVLLSQNGTTPRAVGVEFGTHKGNTHNVYAKHEVLLAAGSAVSPTILEYSGIGMKSILEPLGIDTVVDLPVGLNLQDQTTATVRSRITSAGAGQGQAAWFATFNETFGDYSEKAHELLNTKLEQWAEEAVARGGFHNTTALLIQYENYRDWIVNHNVAYSELFLDTAGVASFDVWDLLPFTRGYVHILDKDPYLHHFAYDPQYFLNELDLLGQAAATQLARNISNSGAMQTYFAGETIPGDNLAYDADLSAWTEYIPYHFRPNYHGVGTCSMMPKEMGGVVDNAARVYGVQGLRVIDGSIPPTQMSSHVMTVFYAMALKISDAILEDYASMQ
stoichiometry N: 2
